Assay [1] concerns the target T1, gp100 peptide on HLA-A*02:01 (human).
T1 peptide: ITDQVPFSV
The experiment in a line: multimer staining.

The target in assay [2] is none (gp100-negative cells) peptide on HLA-A2 (human). The experiment in a line: RNA-electroporated human PBL with HLA-A2+ gp100-negative melanoma A375; 31 pg/ml for transduced PBL in Table 7; text: did not recognize melanoma cell lines not expressing gp100; full-length, on cells. Conditions: chains Valpha:Vbeta.

B1: Sp(0.01)A TCR (TCR, V domains shown)
Valpha: QQKVQQSPESLIVPEGAMTSLNCTFSDSASQYFAWYRQHSGKAPKALMSIFSNGEKEEGRFTIHLNKASLHFSLHIRDSQPSDSALYLCAANNYAQGLTFGLGTRVSVFP
Vbeta: EAAVTQSPRSKVAVTGGKVTLSCHQTNNHDYMYWYRQDTGHGLRLIHYSYVADSTEKGDIPDGYKASRPSQENFSLILELASLSQTAVYFCASSPGGGGEQYFGPGTRLTVL
Consider B1, for which the binding result in assay [1] was “no recognition”. The same molecule had an IFN-gamma release in assay [2] of 45 pg/mL.
